In the supplement of paper PMC10567573:

B1: WEE1 (parent)
chain: FISRTSIPNAASEEGDEDDWASNK

Variants of: B1
Test: protein stability index of a GFP-peptide fusion (GPS, HEK-293T) (PSI 1-6); higher = more stable
Settings: c terminus: a fixed tail appended
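Further: lentivirally expressed fusions sorted by FACS into six bins by GFP to DsRed ratio, PSI derived from sequencing read proportions per bin multiplied by bin number.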

Protein stability index, by site and new letter:
R4: Y 4.1
T5: A 4.19, C 3.58, D 4.2, E 4.85, F 2.35, G 3.53, H 3.21, I 3.5, K 4.01, L 3.6, M 3.3, N 4.28, P 4, Q 3.74, R 3.77, S 4.01, V 3.86, W 2.71, Y 2.19
S6: A 3.98, C 3.95, D 4.39, E 4.86, F 1.83, G 3.58, H 3.48, I 3.61, K 4.27, L 2.66, M 3.15, N 4.53, P 3.79, Q 3.89, R 3.22, T 3.73, V 3.69, W 3.48, Y 1.98
I7: A 4.21, C 3.83, D 4.84, E 4.54, F 2.79, G 4.84, H 3.79, K 4.28, L 4.11, M 4.41, N 4.35, P 4.79, Q 4.37, R 3.58, S 4.36, T 4.53, V 3.78, W 2.82, Y 2.72
P8: A 3.93, C 3.18, D 4.68, E 3.82, F 3.19, G 2.17, H 3.41, I 3.82, K 4.12, L 2.92, M 3.51, N 4.31, Q 3.96, R 3.69, S 4.05, T 4.1, V 3.48, W 2.01, Y 2.16
N9: A 3.66, C 3.44, D 4.34, E 4.64, F 2.87, G 4.38, H 3.93, I 3.77, K 4.13, L 3.79, M 3.25, P 3.91, Q 4.28, R 3.35, S 3.84, T 4.21, V 3.93, W 2.46, Y 2.35
A10: C 3.67, D 3.15, E 4.35, F 3.24, G 4.13, H 4.06, I 3.56, K 3.65, L 3.93, M 3.54, N 3.86, P 4.21, Q 4.16, R 3.97, S 4.34, T 3.89, V 3.57, W 2.15, Y 3.17
A11: C 3.47, D 4.12, E 4.37, F 3.47, G 4.23, H 4.4, I 3.48, K 3.69, L 4.13, M 3.95, N 3.79, P 3.95, Q 4.21, R 3.78, S 4.23, T 4.19, V 3.92, W 2.45, Y 3.63
S12: A 3.64, C 3.97, D 4.26, E 4.34, F 3.68, G 4.13, H 3.93, I 3.85, K 3.75, L 4.03, M 3.68, N 4.07, P 4.18, Q 4.3, R 4.37, T 3.56, V 3.91, W 3.47, Y 3.76
E13: A 3.85, C 3.62, D 3.68, F 3.65, G 3.78, H 3.67, I 3.03, K 3.5, L 3.5, M 3.64, N 3.51, P 4.43, Q 3.81, R 4.15
